{"source": "paper PMC4193333", "origin": "cited, not measured here", "molecular_target": "BK channel alpha subunit (UniProt Q12791)", "sequence (Q12791 whole entry)": "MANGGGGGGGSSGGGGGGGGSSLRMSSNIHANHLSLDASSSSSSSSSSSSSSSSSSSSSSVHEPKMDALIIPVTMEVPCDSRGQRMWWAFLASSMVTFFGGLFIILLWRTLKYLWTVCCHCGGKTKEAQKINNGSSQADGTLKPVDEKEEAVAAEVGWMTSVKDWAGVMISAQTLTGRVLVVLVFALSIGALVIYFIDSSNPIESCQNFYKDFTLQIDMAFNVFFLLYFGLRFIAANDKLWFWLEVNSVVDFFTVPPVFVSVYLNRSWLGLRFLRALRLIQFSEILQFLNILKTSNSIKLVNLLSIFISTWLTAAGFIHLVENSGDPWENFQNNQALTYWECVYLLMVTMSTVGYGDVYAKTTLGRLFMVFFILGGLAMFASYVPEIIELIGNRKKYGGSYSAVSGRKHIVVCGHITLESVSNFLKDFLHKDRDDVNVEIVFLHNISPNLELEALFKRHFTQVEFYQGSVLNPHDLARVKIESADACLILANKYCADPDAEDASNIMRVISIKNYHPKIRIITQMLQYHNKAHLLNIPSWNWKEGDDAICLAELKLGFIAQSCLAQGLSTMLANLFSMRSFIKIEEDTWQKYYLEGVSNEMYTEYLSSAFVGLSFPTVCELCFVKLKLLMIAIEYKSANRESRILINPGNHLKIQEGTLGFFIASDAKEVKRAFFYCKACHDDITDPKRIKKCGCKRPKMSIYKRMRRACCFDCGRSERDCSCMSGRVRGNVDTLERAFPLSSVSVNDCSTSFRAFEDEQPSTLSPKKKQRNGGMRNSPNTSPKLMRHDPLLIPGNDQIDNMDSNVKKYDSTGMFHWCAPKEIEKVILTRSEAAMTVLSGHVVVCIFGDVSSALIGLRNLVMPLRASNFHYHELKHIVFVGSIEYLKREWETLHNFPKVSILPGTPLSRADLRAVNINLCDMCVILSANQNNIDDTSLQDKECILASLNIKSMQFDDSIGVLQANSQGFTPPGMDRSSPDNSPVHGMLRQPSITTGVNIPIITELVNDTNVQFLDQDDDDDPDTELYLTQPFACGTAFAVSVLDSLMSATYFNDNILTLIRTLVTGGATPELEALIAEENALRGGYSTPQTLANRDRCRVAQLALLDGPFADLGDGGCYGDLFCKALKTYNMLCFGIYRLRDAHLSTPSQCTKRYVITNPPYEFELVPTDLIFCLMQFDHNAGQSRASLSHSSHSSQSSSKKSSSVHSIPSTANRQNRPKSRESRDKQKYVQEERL"}
{"substance": "Iberiotoxin (IbTX) (from UniProt P24663)", "values": [{"measurement": "Kd", "value": 1.5, "unit": "nM"}]}
